assay: soluble on expression in E. coli; label from the status in PepcDB or PDB records

| Sequence | soluble on expression in E. coli |
| --- | --- |
| MQKKRFSKKYEVHYYEINSMQEATLLSLLNYMEDCAISHSTSAGYGVNELLAADAGWVLYRWLIKIDRLPKLGETITVQTWASSFERFYGNREFIVLDGRDNPIVKASSVWIYFNIKKRKPMRIPLEMGDAYGIDETRALEEPFTDFDFDFEPKVIEEFTVKRSDIDTNSHVNNKKYVDWIMETVPQQIYDNYKVTSLQIIYKKESSLGSGIKAGCVIDEQNTDNPRLLHKIWDKNTGLELVSAETIWQKIQS | soluble |
| MSLRRPYEALRGHFEKCLATPLRPMNLRTLAGNDKGYIHTAVEQLGARTARSYRAIYSEVQKRSLDREINARLSPLESICRREFECCVELSELAEVYLRKMERGEICDADTSQPNEIIDDAQVDSIMKGEGYGGSGNSGGDSSVKRLIDVLESLRPHENLFDIVVNEEWICSPNFNNWLSRFCTRRVSWRVIHEHLLHLVGPGRYSPIIRTDPNVGSILRHTGTVVVEQYVRSIQSIHGGSMFIHMEEQPDLFTRVPSGRLATSSKVDCPIFPTTSMPPAPSSRVIYSVEGHLEYVFRELMKNACLAMRSRTNSIELQVCFASNDTHVVVDVTDAAGGIAPDAVEKLWLFGWTTNSSFDNKMGGFGIGLPASKCYMDLWGGRIDLYTTEGVGTTVRVIFPKAPTEVFVPKGTEGHHHHHH | soluble |
| MSLGFIEEIKSALGNYVITEKKDLIPYMNDASYFTGEMPEAVVLPGSAEDVQTIMRLAYKYEKPVVVKGGGSSLTGSSILKESGIVMSMLRMNRILDINLNDKCVTVEPGLRLNDLQLYLDKYGHFYPPDPASSMAATVGGSISTNAGGLRGVAYGVTKDWILGLDVVLADGTMVKFGNKTLKRTLGYDLTSLMIGSEGTLGVITKAYLKIWPKPQKVARLVAFYQDIESAGRAVNELKVSTIPEMAEFLDKISLDSVPEAITYPPGTKYALIIDVSGPPELLGKKKTETEELLKRYAISTKSTTDPAEMEKIYRARKGLYASILKLRKSEKEYIVIGDIVVPVSELPTSLKEIEKKRDEDGVRAAIFGHIGDGNIHANIFADLGDNSAMDKVNRFMMDLAMVAVKHGGSVSAEHGIGIEKKQLLIEEMKYNNNLRTLDIMKAIKQVFDPKNILNRGNIFEEGHHHHHH | soluble |
| MGSDKIHHHHHHMKIKKYVAESIREAMIMIRRELGENAVILSSRRIKKGGFFGIGGKTYFEVTAAVEEERKKEENTSYRLQEILVKNRQSSNDNIKGEFDEIKRTINEIKQMLVTEKRQTLPEGLSKILYGMEKQEILPEIRYKLIDFLKMKFGDLDPNSNETFKILSEQFVNLVKTNAPDFKNAKVLFVGTTGVGKTTSLAKLAARFKIDEKKRVAILTLDTYRIAAAEQLKIYADIMDIPMKIAYTPKEAEYEMMALKDYDIVLVDTAGRSHQNDLQMSELRALSEAVKPNITFLVLSMNYKLDDMKRIVERFSAVKPTHIILTKMDETSVYGTFVNISEITGLPIAFVTNGQRVPDDIFEANPVELARIVAGEVLNHARSSGTSEKE | not soluble |
| GMSSKAEKDIKWGIAPIGWRNDDIPSIGKDNNLQQLLSDIVVAGFQGTEVGGFFPGPEKLNYELKLRNLEIAGQWFSSYIIRDGIEKASEAFEKHCQYLKAINAPVAVVSEQTYTIQRSDTANIFKDKPYFTDKEWDEVCKGLNHYGEIAAKYGLKVAYHHHMGTGIQTKEETDRLMANTDPKLVGLLYDTGHIAVSDGDYMALLNAHIDRVVHVHFKDVRRSKEEECRAKGLTFQGSFLNGMFTVPGDGDLDFKPVYDKLIANNYKGWIVVEAEQDPSKANPLEMAQIAHRYIKQHLIEN | soluble |
| MKKHIKNLFLLAAICLTVACKEQLYTGLTEKEANQMQALLLSNDVNVSKEMDKSGNMTLSVEKEDFVRAITILNNNGFPKKKFADIEVIFPPSQLVASPSQENAKINYLKEQDIERLLSKIPGVIDCSVSLNVNNNESQPSSAAVLVISSPEVNLAPSVIQIKNLVKNSVDDLKLENISVVIKSSSGQDG | not soluble |
| MGSDKIHHHHHHMPPRASERSQLRGDENFVHAAHHELYNATQRRNLTKATTTIRTKRLNVTAEMPDWEAVREAGSGIKRDVGQRLDELLVQFEEAVTARGGHVHWARDAKEAGDIVTKLVEETGEKNVVKIKSMATMEIDLNNRLREAGISARETDLAELIVQLGKDKPSHILVPAIHRNRAEIRDIFIREMPNTDDSLSSEPAELAEASRSFLREQFMKAKVAISGANFGIAETGTVTIMESEGNGRMCLTLPETLISVMGIEKIIPTFQDLEVFLQLLPRSSTGERQAPYVSTWSGVTEGDGPKNFHIVLVDNGRTAVLSDEIGREALKCIRCSACLNVCPVYERAGGHAYGSTYPGPIGAILSPQMTGIKNKHDPNAYLPYASSLCGRCNEVCPVKIPFTDILLELRHKKIQTDAPKIEKAMMGAMQLAWGNSTMWNMITRMVFMGRIMGGSNGKITHLPSFLAGWTDVRDTAVPPKKSFRQWFETEEAQQLLADARRDGIHPNNPEVNQKKEN | not soluble |
| MGSDKIHHHHHHMSRLSTAPWGPVLKSVPTAAHWSLRPWCLSISLSANSEAMNKMQTEKLITPFAHALQHEHGVWGLIDQMKAVTHFLDEELERDRIRNLGIADASFLRKFGAKGTYAAQWLEAQGVVIPTRPNSWAQAADGSLALRLGNSEFLIEDVPGGTSCDRLAQACAGARGVYPVPHVEASFVISGHAVQALFSEVCSIDLTHASLGAQDVVMTQFAGVSVVLIRQDLKEEESLYRLWCDSSYGSYLWEVIAGIAHEHKGGPVGIGRYFASCP | not soluble |
| MAPKDNTWYTGAKLGFSQYHDTGFINNNGPTHENQLGAGAFGGYQVNPYVGFEMGYDFLGRMPYKGSVENGAYKAQGVQLTAKLGYPITDDLDIYTRLGGMVFRADTKSNVYGKNHDTGVSPVFAGGVEYAITPEIATRLEYQFTNNIGDAHTIGTRPDNGMLSLGVSYRFGQGEAA | soluble |
| MNVLVIEDDKVFRGLLEEYLSMKGIKVESAERGKEAYKLLSEKHFNVVLLDLLLPDVNGLEILKWIKERSPETEVIVITGHGTIKTAVEAMKMGAYDFLTKPCMLEEIELTINKAIEHRKLRKENELLRREKDLKEEEYVFESPKMKEILEKIKKISCAECPVLITGESGVGKEVVARLIHKLSDRSKEPFVALNVASIPRDIFEAELFGYEKGAFTGAVSSKEGFFELADGGTLFLDEIGELSLEAQAKLLRVIESGKFYRLGGRKEIEVNVRILAATNRNIKELVKEGKFREDLYYRLGVIEIEIPPLRERKEDIIPLANHFLKKFSRKYAKEVEGFTKSAQELLLSYPWYGNVRELKNVIERAVLFSEGKFIDRGELSCLVNSK | soluble |
| MGSDKIHHHHHHMSAFYDLYETPDPNDTGEKQPLHARIVPSGTYSKKDFIERVSRHQPFPHNIIEGVLGAVVDELAEALADGYIVELGELGHFSISLKCTHKVMTKKEIRAESIRFDNVHLRTSKEFKKKIKREIELERVENSNEKTHNAKISIEDRLQMLQEFLKKNGGITRIEYSRLTGLPRLKAIDDLNTFIKEGTLRKRGAGRTVFYVWKQKE | not soluble |
| MNAQEFKEKKTETTGAHHAQRLGIAAGMTVQEVGWDEDCDSTISEAIEDILGEELLDEETDEACDVVLLWWRSDDGDLVDGLVDSIRPLADNGRIWLLTPGAGKQGALDPGEISESAQLAGLVQTKAERLGAWQGSCLVQRGNKQ | not soluble |
| MGSDKIHHHHHHMFERDNREDEAAELVTLAAKLKALMKPDVARRVEPDLEALLEAEGLAMRPGPRPMIDTDLVQELRQAMITCSKVKLRYRNRRTRQANERIVHPYAFLHGHRNYLIAWHEHPKANKVALFALPHIEAVDATGEPFVRDPGFQLQDFAARSFGLFQDEPFQTAWKFAPDAADDAAEFLFHPSQAQERLPDGSLIVRFVAASELEMAWHLYAWGDKVEVLEPQKLAEMVNPGRVAWPALP | not soluble |
| MGSDKIHHHHHHMYQVIANFSFQNFEHDPVILINQIINQWRYNGQIIGREFSVTYHTQPSAHFQVRLATPEQISLMPEWNNDQVTEALSQAAEKGVEFESFEIIGRDYQAEQTSENSNARFYILYTTHLDSCSPLYNGDDFCPVPLYRLLQKDQSLAQALIKWQENWQACDQLQMNGTILEQPALNEISEIDSNLAQLGIKLCREVERVTQVPTYYYLYRLGTDEAVEYQRKCSSCGAEWRLTEPLHQIFHFKCDKCRLISNLSWQLQK | not soluble |
| MTDSKYDYSDITPVDINTEEPQICQILYDEDYKQIMGLLLALMKAEEYSERALHITELGINELASHYTIWIYRFNILKNLPNRNLYDELDWCEEIALDNEKNYQIWNYRQLIIGQIMELNNNDFDPYREFDILEAMLSSDPKNHHVWSYRKWLVDTFDLHNDAKELSFVDKVIDTDLKNNSAWSHRFFLLFSKKHLATDNTIDEELNYVKDKIVKCPQNPSTWNYLLGIHERFDRSITQLEEFSLQFVDLEKDQVTSSFALETLAKIYTQQKKYNESRTVYDLLKSKYNPIRSNFWDYQISKLTSV | soluble |
| MSEMSVIIEFSIVPMGEVSISKYVAEIIKLVRDRGVKYQLTPMGTILEVNSIEEGLSIIRDAHELMFKLGSKRVLTTIRIDERRDKARTMEDKVKSVMEKVESVRE | soluble |
| HGTSDATLLKGVGHLYGTALPVGGLGTRSVLTAHSGIQKSTFFDNLEKVKKGDAIYVRNIGETLKYQVRDIEIIRPAEIDRIQPIPDRDLITLVTCTPYGINTHRLLVTAERVPMEPGEADRAFAGDGIVWQWWMK | not soluble |
| MGSDKIHHHHHHMATLLTLLLLFATPIAIRAEEFVWPEPSNAIERKFEKAALTSDNAACSKIGGEILRKGGNSIDASIASMFCLGVVNPQSSGIGGGFLMTYFDQKSGDCYSIDARETAPAAASRDMFLNDSDGSKYGFKAAGTPGEIAGYWHIFKKFGSGKVTWKELVQPSVKLAREGHPVSPYLATVMKVKERHFRLFPSVKASSIKLSMFYRHWINPETNDTYQSGDLLKRPKLAKTLERLGNSPNPVQLFYHGEMAKTLAKEFQEGGGLITEQDLANYKVREYVNSNSNDHFRGTLTMCGGPPPSSFGVTQLIVSAMSKLFPEGHKDDIYNDPKVLHKYIEAMKFAYAQRTLLGDHDFVKGALELSKNLTTPEYTQWVIDRMTDKAQSSKNYGGIAQYVPPDHGTSHVSAMDQYGNGVSATTTINRWFGAAVESSEYGILWNDEMDDFSTPGMENGFGFAPSETNFIEPGKRPMSSMSPMVIFDHVTKKVRMVIGGSGGSKIISALAKSIVRSLIFHDSIKKAIDAPMIHNQFTPDITQLDDEFPINMKNILESEYLQKFRNTTGFEGIIQGVNVLNDGIYACGDYRRKTDQEPSGF | not soluble |
| MNTNSYSMAQDNEEITKLEAPSTNKTNTLLSQSHAVVNHGDNGQINGKKTKEIHRVKRASDKKVSSKRVSRTWKIPKYPKKQPKSDQEHPGFNLDYMQPTTHPPHHN | soluble |
| MSLSEAGHKFLAKLGKKRLRPGGKRATDWLIAEGGFSKEKRILEVACNRGTTAIELAQRFGCKITAVDMDAQALEVAKKSAGTAGVAHLISFERANAMKLPYQDASFDIVINEAMLTMQADQAKKKCVMEYLRVLKPGGLLLTHDVLLKEAKESIRQELSQAIHVNVGPLTQDGWEQVMIESGYCDVKALTGEMTLMKLSGMIYDEGLLGTLKICVNACKKENRKQFLTMYKMFAKNKQKLGFIAMASYKSSEGHHHHHH | soluble |
| MLKKRKLGRRIGEIQAGEKLVFQAAIEDKDLLLYLGLTDDANPLYIQHDYASQTPFGKPVVPPVMLTGMITSAVSKYLPGPGSYITRQDLRFLRPVYHYETLEFLLEVADVDEAGHCVTLSVMATRGAETVLDGTLSVCPPHTLPRLDGRVLENF | not soluble |
